Data published in US9434716B2, “Antigen binding proteins” (Glaxo Group Limited, priority 2011, dated 2016).
Residue numbers refer to the chain shown, from its start. “Also recorded” adds a separate entry of the source. Each block holds one molecule with its values, some of them ahead of it.

Key:
[1] = biological target: T1, circulating SAP (Homo sapiens, UniProt P02743); conditions: for as long as the drug is administered; cited from earlier work
T1 construct: host or cells: circulating plasma protein in vivo

[2] = initial clinical studies; cited from earlier work
[3] = biological target: T2, human SAP (Homo sapiens, UniProt P02743); assay: Biacore kinetics, human SAP captured on immobilised O-phosphoethanolamine; format: binding; conditions: for binding with respect to H3L0: amino acid scan at position 91 of SAP-K L0 light chain
T2 construct: from tissue; host or cells: natural human SAP, purified
Description: O-phosphoethanolamine was immobilised on a Biacore CM5 chip by primary amine coupling in accordance with the manufacturer's instructions. Human SAP was then captured on the surface in the presence of calcium chloride, in order to replicate in the Biacore system in vitro, the precise orientation of SAP molecules bound to amyloid fibrils in vivo. Anti SAP antibodies were then passed over this surface at 256, 64, 16, 4, 1 nM and a binding sensorgrams obtained. Analysis was carried out at 25° C. using 4% BSA, 10 mM Tris, 140 mM NaCl, 2 mM CaCl2, 0.05% surfactant P20, 0.02% Na N3, pH 8.0 as running buffer. […] Data generated were double referenced with a buffer injection over the human SAP surface and analyzed using the bivalent analyte model in the Biacore T100 evaluation software.

[4] = biological target: T2, human SAP; assay: Human SAP binding ELISA, SAP-K and SAP-E hybridoma antibodies; conditions: 1 μg/mL lower density coating of human SAP
Description: 1 μg/mL or 5 μg/mL human SAP was directly immobilised onto an ELISA plate and blocked with 1% BSA/TBS plus 0.05% TWEEN20. Anti-SAP antibodies from purified material were titrated across the plate. Bound antibody was detected by treatment with a horse-radish peroxidase (HRP)-conjugated rabbit-anti-mouse IgG antibody (Dako, P0260). The ELISA was developed using O-phenylenediamine dihydrochloride (OPD) peroxidase substrate (Sigma, P9187).

[5] = biological target: T3, native human SAP (Homo sapiens, UniProt P02743); assay: Double immunodiffusion in agarose gel; format: binding; conditions: isolated pure human SAP and whole human serum
T3 construct: against both isolated pure human SAP and whole human serum; from tissue; host or cells: whole human serum, and isolated pure human SAP

[6] = biological target: T2, human SAP; assay: Western blotting and fragment epitope mapping (CNBr, chymotrypsin); format: binding
Source text: This is consistent with the kinetic stability and resistance to denaturation of SAP (Manning, M. and Colón, W. (2004) Biochemistry, 43: 11248-11254).
B, SDS-PAGE analysis of SAP cleaved with CNBr. […] These were precisely confirmed by mass spectrometry. […] C, SDS-PAGE analysis of SAP digested with chymotrypsin. Left panel: Coomassie blue stain; lane 1, untreated control SAP; lane 2, SAP after chymotrypsin digestion, showing the expected major fragments corresponding to residues 1-140 and 145-204. These were precisely confirmed by mass spectrometry. Right panel: Western blot with SAP-E showing intense staining of intact untreated SAP in lanes 1 (500 ng loaded) and 2 (100 ng), and also residual intact SAP in lanes 3 and 4 which contained the chymotrypsin digested SAP at different loadings. Very weak binding of SAP-E to the residue 1-140 fragment is seen only in lane 3 which was most heavily loaded. […] D, Sequence comparison between human SAP (h) and mouse SAP (m) for residues 136-147. Top panel, differences indicated above by residues shown in black in the murine sequence. Bottom panel, position of this extended loop with 140Y at its apex shown in white in the 3D subunit structure of human SAP. The different residues in the murine sequence are shown in black. The grey spheres represent the calcium atoms bound in the ligand binding pocket.

[7] = biological target: T2, human SAP; assay: Competition ELISA with chimeric anti-SAP mAb; format: binding; conditions: human SAP coated at 5 μg/mL; purified murine mAb
Source text: A constant concentration of chimeric anti-SAP mAb was mixed with serial diluted (1:1) amounts of mouse anti-SAP mAbs. Plates were washed and the amount of chimeric antibody bound to the immobilised human SAP was detected using goat anti-human Kappa Light chain peroxidase conjugate (Sigma, A7164). The ELISA was developed using O-phenylenediamine dihydrochloride (OPD) peroxidase substrate (Sigma, P9187).

[8] = system: mice with systemic AA amyloidosis; assay: SAP-K in clearing amyloid deposits, mouse AA amyloidosis model (Example 15); format: in vivo; conditions: lower doses of 1 mg, 0.5 mg and 0.1 mg per mouse
Description: AA amyloidosis was induced and confirmed in wild-type C57BL/6 mice as detailed in Example 10 above. After loading the amyloid deposits with human SAP also detailed in Example 10, groups of mice were treated with 50 mg per mouse of total IgG as the whole IgG fraction (batch 2866) of the sheep polyclonal anti-human SAP antiserum providing a dose of 7 mg of actual anti-SAP antibody, […], and, as a negative control, isolated purified monoclonal mouse IgG2a antibody specific for an unrelated human antigen and unreactive with either human SAP or any murine antigen. All mice were killed 17 days later for estimation of amyloid load by Congo red staining.

[9] = biological target: T2, human SAP; assay: Biacore (BIAcoreX), human SAP covalently immobilised on the chip; format: binding; conditions: mean and SD of 3 replicate measurements
[10] = biological target: T2, human SAP; assay: Binding of mouse monoclonals to immobilised human SAP in vitro
Source text: SAP-E and SAP-K are from two groups of anti-SAP monoclonals, each group having been tested separately for their binding to human SAP in vitro.
SAP-K was selected from among the 6 different, most avidly binding, mouse IgG2a monoclonals, derived by standard techniques from immunization with purified human SAP and a conventional fusion to produce hybridomas which were cloned by routine methods. […] This was the case regardless of whether the human SAP had been directly immobilised on plastic surfaces by non-specific adherence or by covalent attachment, or by the specific calcium dependent binding of SAP to immobilised ligands, whether amyloid fibrils or the small molecule ligand, phosphoethanolamine. SAP-K also bound well to directly immobilised SAP in the presence or absence of calcium, and if the SAP had previously been complexed with CPHPC and then covalently ‘fixed’ in the decameric SAP-CPHPC complex (Pepys, M. B. et al (2002) Targeted pharmacological depletion of serum amyloid P component for treatment of human amyloidosis. Nature, 417: 254-259; Kolstoe, S. E. et al (2009) Molecular dissection of Alzheimer's disease neuropathology by depletion of serum amyloid P component. Proc. Natl. Acad. Sci. USA, 106: 7619-7623). SAP-E also bound well to human SAP in all these different configurations.

[11] = biological target: T2, human SAP; assay: Biacore off-rate ranking, SAP immobilised on C1 chip; format: binding; conditions: culture supernatants, chimera purified at […], single curve, for ranking, 25° C.
Description: Human and cynomologus monkey SAP were immobilised on a Biacore C1 chip by primary amine coupling in accordance with the manufacturer's instructions. […] All runs were double referenced with a buffer injection for purified sample or media for the supernatant samples over the human and cyno SAP surfaces. Analysis was carried out at 25° C. using HBS-EP buffer. […] Data were analysed using the 1 to 1 dissociation model within the Biacore T100 evaluation software.
The data generated in Tables 6a and 6b show off-rates (kd) of the humanised SAP-E and SAP-K antibody supernatants respectively. The values were based on a single curve and used for ranking purposes between the different constructs for binding to human SAP. […] The SAP-E humanised L1 light chain was the best light chain variant and combination of the L1 with the H1 heavy chain variant gave a humanised antibody with an acceptable off-rate whilst keeping the number of back mutations to a minimum.

[12] = CM5 chip, calcium, bivalent analyte model, 25° C., for comparison only, avidity effect

T2 sequence (P02743 20-223): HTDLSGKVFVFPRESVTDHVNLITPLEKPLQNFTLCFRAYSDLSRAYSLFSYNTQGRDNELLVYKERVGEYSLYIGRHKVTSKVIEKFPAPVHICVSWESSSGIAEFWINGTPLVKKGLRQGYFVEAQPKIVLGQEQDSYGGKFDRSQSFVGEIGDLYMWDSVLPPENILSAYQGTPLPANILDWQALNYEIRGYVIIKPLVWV
T1 sequence (P02743 20-223): as above
T3 sequence (P02743 20-223): as above

binding to the immobilised human SAP [4]: greater binding than the SAP-E
binding to native human SAP in western blotting ([6]; after agarose gel electrophoresis in physiological buffers): bound
binding to human SAP in western blotting from reduced SDS-PAGE ([6]; denatured human SAP): only recognises native human SAP
competition with SAP-E chimera [7]: no competition
ka [3, 12]: 300000 M⁻¹ s⁻¹
kd [3, 12]: 0.000219 s⁻¹
ka [9]: 3.18 ± 5 × 10^4 M^−1 sec^−1
binding to immobilised human SAP ([10]; human SAP sparsely available, plates coated with 1 μg/ml): much more SAP-K than SAP-E became bound
B1: SAP-K: mouse IgG2a monoclonal anti-human SAP antibody, VH SEQ ID NO:17, VL SEQ ID NO:19 (antibody, V domains shown)
VH: QVQLQQPGAELIKPGASVKLSCKASGYTFTSYWMHWVKQRPGQGLEWIGMIHPNSVNTNYNEKFKSKATLTVDKSSSTAYMQLNSLTSEDSAVYYCARRNDYYWYFDVWGTGTTVTVSS
VL: DIVMTQSQKFMSTSVGDRVSVTCKASQNVNSNVAWYQQKPGQSPKALIYSASYRYSGVPDRFTGSGSGTDFTLTITNVQSEDLAEYFCQQCNNYPFTFGSGTKLEIK
binding to native human SAP (immunoprecipitation) [5]: bound apparently equally well to native human SAP
effect on amyloid deposits [8]: no significant effect
kd [9]: 1.7 ± 0.9 × 10^−5 sec^−1
binding to human SAP in vitro ([10]; compared within the group of monoclonals): strongest binding to SAP, within their groups; also recorded: greatest binding to immobilised human SAP

kd [11]: 0.0479 s⁻¹
B3: SAP-K H0L1: humanised SAP-K, VH SEQ ID NO:37, VL SEQ ID NO:42 (antibody, V domains shown)
VH: QVQLVQSGAEVKKPGSSVKVSCKASGGTFSSYWMHWVRQAPGQGLEWMGMIHPNSVNTNYNEKFKSRVTITADKSTSTAYMELSSLRSEDTAVYYCARRNDYYWYFDVWGQGTLVTVSS
VL: DIQMTQSPSSLSASVGDRVTITCKASQNVNSNVAWYQQKPGKAPKALIYSASYRYSGVPSRFSGSGSGTDFTLTISSLQPEDFATYYCQQCNNYPFTFGQGTKLEIK

kd [11]: 0.0321 s⁻¹
B4: SAP-K H2L1: humanised SAP-K, VH SEQ ID NO:39, VL SEQ ID NO:42 (antibody, V domains shown)
VH: B3 VH with G27Y, S30T, M48I, V68A
VL: B3 VL

Further lines, the molecule ahead of its results:

Molecule: O=C(O)[C@H]1CCCN1C(=O)CCCCC(=O)N1CCC[C@@H]1C(=O)O [CPHPC, (R)-1-[6-[(R)-2-Carboxy-pyrrolidin-1-yl]-6-oxo-hexanoyl]pyrrolidine-2-carboxylic acid]
depletion of circulating SAP [1]: depletes almost all circulating SAP
effect on amyloid [2]: did not produce amyloid regression

Molecule: glycine
binding with respect to H3L0 [3]: improved binding with respect to H3L0, but to a lesser extent than alanine

Molecule: serine
binding with respect to H3L0 [3]: improved binding with respect to H3L0, but to a lesser extent than alanine

Molecule: valine
binding with respect to H3L0 [3]: improved binding with respect to H3L0, but to a lesser extent than alanine

B2: SAP-K H1L1: humanised SAP-K, VH SEQ ID NO:38, VL SEQ ID NO:42 (antibody, V domains shown)
VH: B3 VH with G27Y, S30T
VL: B3 VL
kd [11]: 0.0296 s⁻¹
